Reference: PMC10797183

Assays:
[1] = biological target: Acanthamoeba castellanii actin (Acanthamoeba castellanii)
[2] = biological target: Acanthamoeba castellanii actin (Acanthamoeba castellanii); remark: listed apart in the source

“Fhod-B (C-terminal half: FH1 and FH2 domains and the Fhod-B tail) (domain or fragment)” was tested, and the median run length (length of dim filaments after 5 min), TIRF microscopy with profilin; said to be an underestimate [1] was 24 μm and the run length, mean of three independent samples, TIRF microscopy with profilin [2] was 24.1 μm.
